To fix the notation:
B1: Y-a-DAIFTDSYRKVLAQLKARQDIL-aib-R-NH2 (SEQ ID NO: 22) (peptide)
peptide: YXDAIFTDSYRKVLAQLKARQDILXR
HELM: PEPTIDE1{Y.[dA].D.A.I.F.T.D.S.Y.R.K.V.L.A.Q.L.K.A.R.Q.D.I.L.[Aib].R.[am]}$$$$V2.0; N-terminus assumed
SMILES: CC[C@H](C)[C@H](NC(=O)[C@H](C)NC(=O)[C@H](CC(=O)O)NC(=O)[C@@H](C)NC(=O)[C@@H](N)Cc1ccc(O)cc1)C(=O)N[C@@H](Cc1ccccc1)C(=O)N[C@H](C(=O)N[C@@H](CC(=O)O)C(=O)N[C@@H](CO)C(=O)N[C@@H](Cc1ccc(O)cc1)C(=O)N[C@@H](CCCNC(=N)N)C(=O)N[C@@H](CCCCN)C(=O)N[C@H](C(=O)N[C@@H](CC(C)C)C(=O)N[C@@H](C)C(=O)N[C@@H](CCC(N)=O)C(=O)N[C@@H](CC(C)C)C(=O)N[C@@H](CCCCN)C(=O)N[C@@H](C)C(=O)N[C@@H](CCCNC(=N)N)C(=O)N[C@@H](CCC(N)=O)C(=O)N[C@@H](CC(=O)O)C(=O)N[C@H](C(=O)N[C@@H](CC(C)C)C(=O)NC(C)(C)C(=O)N[C@@H](CCCNC(=N)N)C(N)=O)[C@@H](C)CC)C(C)C)[C@@H](C)O
B2: Y-a-D-A-I-F-T-D-S-Y-R-K-V-L-A-Q-L-O-A-R-Q-D-I-L-S-r-NH2 (SEQ ID NO: 23) (peptide)
peptide: YXDAIFTDSYRKVLAQLXARQDILSX
HELM: PEPTIDE1{Y.[dA].D.A.I.F.T.D.S.Y.R.K.V.L.A.Q.L.[Orn].A.R.Q.D.I.L.S.[dR].[am]}$$$$V2.0; N-terminus assumed
SMILES: CC[C@H](C)[C@H](NC(=O)[C@H](C)NC(=O)[C@H](CC(=O)O)NC(=O)[C@@H](C)NC(=O)[C@@H](N)Cc1ccc(O)cc1)C(=O)N[C@@H](Cc1ccccc1)C(=O)N[C@H](C(=O)N[C@@H](CC(=O)O)C(=O)N[C@@H](CO)C(=O)N[C@@H](Cc1ccc(O)cc1)C(=O)N[C@@H](CCCNC(=N)N)C(=O)N[C@@H](CCCCN)C(=O)N[C@H](C(=O)N[C@@H](CC(C)C)C(=O)N[C@@H](C)C(=O)N[C@@H](CCC(N)=O)C(=O)N[C@@H](CC(C)C)C(=O)N[C@@H](CCCN)C(=O)N[C@@H](C)C(=O)N[C@@H](CCCNC(=N)N)C(=O)N[C@@H](CCC(N)=O)C(=O)N[C@@H](CC(=O)O)C(=O)N[C@H](C(=O)N[C@@H](CC(C)C)C(=O)N[C@@H](CO)C(=O)N[C@H](CCCNC(=N)N)C(N)=O)[C@@H](C)CC)C(C)C)[C@@H](C)O
B3: Trans-3-hexenoyl-Y-A-D-A-I-F-T-D-S-Y-R-K-V-L-A-Q-L-O-A-R-Q-D-I-L-S-r-NH2 (SEQ ID NO: 24) (peptide)
peptide: YADAIFTDSYRKVLAQLXARQDILSX
HELM: PEPTIDE1{[CC/C=C/CC(=O)[*:2]].Y.A.D.A.I.F.T.D.S.Y.R.K.V.L.A.Q.L.[Orn].A.R.Q.D.I.L.S.[dR].[am]}$$$$V2.0
SMILES: CC/C=C/CC(=O)N[C@@H](Cc1ccc(O)cc1)C(=O)N[C@@H](C)C(=O)N[C@@H](CC(=O)O)C(=O)N[C@@H](C)C(=O)N[C@H](C(=O)N[C@@H](Cc1ccccc1)C(=O)N[C@H](C(=O)N[C@@H](CC(=O)O)C(=O)N[C@@H](CO)C(=O)N[C@@H](Cc1ccc(O)cc1)C(=O)N[C@@H](CCCNC(=N)N)C(=O)N[C@@H](CCCCN)C(=O)N[C@H](C(=O)N[C@@H](CC(C)C)C(=O)N[C@@H](C)C(=O)N[C@@H](CCC(N)=O)C(=O)N[C@@H](CC(C)C)C(=O)N[C@@H](CCCN)C(=O)N[C@@H](C)C(=O)N[C@@H](CCCNC(=N)N)C(=O)N[C@@H](CCC(N)=O)C(=O)N[C@@H](CC(=O)O)C(=O)N[C@H](C(=O)N[C@@H](CC(C)C)C(=O)N[C@@H](CO)C(=O)N[C@H](CCCNC(=N)N)C(N)=O)[C@@H](C)CC)C(C)C)[C@@H](C)O)[C@@H](C)CC

The text below walks through data of patent publication US20120270784A1 (THERATECHNOLOGIES, published 2012).

For the assay, the target named is T1, human GRF receptor (human, UniProt Q02643 23-423).
T1 sequence (looked up): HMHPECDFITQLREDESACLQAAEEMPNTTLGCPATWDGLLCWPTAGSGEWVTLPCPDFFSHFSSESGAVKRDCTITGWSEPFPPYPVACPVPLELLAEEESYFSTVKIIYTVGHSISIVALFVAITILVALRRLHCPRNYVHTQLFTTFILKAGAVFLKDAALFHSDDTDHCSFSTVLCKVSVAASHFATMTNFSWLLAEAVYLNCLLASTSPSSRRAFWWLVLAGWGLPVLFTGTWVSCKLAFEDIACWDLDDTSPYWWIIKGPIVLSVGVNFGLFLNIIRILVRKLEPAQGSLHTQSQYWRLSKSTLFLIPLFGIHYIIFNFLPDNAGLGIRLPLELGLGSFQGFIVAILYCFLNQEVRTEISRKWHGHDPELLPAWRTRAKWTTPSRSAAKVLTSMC
In words: cell-based or functional assay.
For the molecule B1, the “EC50 as assessed by alkaline phosphatase (AP) induction” value (from here on “EC50 as assessed”) came out at 0.72 nM.

B2: the “EC50 as assessed” value was 1.14 nM.

On to B3, for which the “EC50 as assessed” value came out at 1.18 nM.
